The target in test [1] is T1, EGFR L858R peptide on HLA-A*11:01 (human).
T1 peptide: KITDFGRAKL
The experiment in a line: activation reporter or marker.

The target of test [2] is T2, EGFR L858R peptide on HLA-A*11:01 (human).
T2 peptide: KITDFGRAK
Description: activation reporter or marker.

Test [3] concerns the target T3, EGFR wild type (L858) peptide on HLA-A*11:01 (human).
T3 peptide: VKITDFGLAK
Description: activation reporter or marker.

Test [4] addresses T4, EGFR wild type (L858) peptide on HLA-A*11:01 (human).
T4 peptide: KITDFGLAK
Description: activation reporter or marker.

The target in test [5] is T5, EGFR wild type (L858) peptide on HLA-A*11:01 (human).
T5 peptide: KITDFGLAKL
Description: activation reporter or marker.

For test [6], the target named is T2, EGFR L858R peptide on HLA-A*11:01. The experiment in a line: killing.
Test [7] addresses T4, EGFR wild type (L858) peptide on …. Description: killing.

B1: 0013-TCR102 (TCR, V domains shown)
Valpha: VGLHLPTLSVQEGDNSIINCAYSNSASDYFIWYKQESGKGPQFIIDIRSNMDKRQGQRVTVLLNKTVKHLSLQIAATQPGDSAVYFCAETPDKLIFGTGTRLQVFP
Vbeta: DTGVSQDPRHKITKRGQNVTFRCDPISEHNRLYWYRQTLGQGPEFLTYFQNEAQLEKSRLLSDRFSAERPKGSFSTLEIQRTEQGDSAMYLCASSGGGDSPLHFGNGTRLTVT
Regarding B1, the binding result in test [1] is recorded as “no recognition”; in test [2], “recognises”; in test [3] it was “no recognition”; in test [4], “no recognition”; in test [5] it was “no recognition”.

B2: 0013-TCR319 (TCR, V domains shown)
Valpha: QSVTQPDIHITVSEGASLELRCNYSYGATPYLFWYVQSPGQGLQLLLKYFSGDTLVQGIKGFEAEFKRSQSSFNLRKPSVHWSDAAEYFCAVGGGGADGLTFGKGTHLIIQP
Vbeta: DVKVTQSSRYLVKRTGEKVFLECVQDMDHENMFWYRQDPGLGLRLIYFSYDVKMKEKGDIPEGYSVSREKKERFSLILESASTNQTSMYLCATLWYRQGADGYTFGSGTRLTVV
On to B2, for which the binding result in test [1] was “no recognition”; in test [3], “no recognition”; in test [5] it was “no recognition”; in test [6] it was “recognises”; in test [7] it was “no recognition”.

B3: 0013-TCR1 (TCR, V domains shown)
Valpha: QKEVEQNSGPLSVPEGAIASLNCTYSDRGSQSFFWYRQYSGKSPELIMSIYSNGDKEDGRFTAQLNKASQYVSLLIRDSQPSDSATYLCAVYNNNDMRFGAGTRLTVKP
Vbeta: GVSQTPSNKVTEKGKYVELRCDPISGHTALYWYRQSLGQGPEFLIYFQGTGAADDSGLPNDRFFAVRPEGSVSTLKIQRTERGDSAVYLCASSFLAGHLYTGELFFGEGSRLTVL
For the molecule B3, the binding result in test [3] is on record as “no recognition”; in test [5], “no recognition”; in test [6] it was “recognises”; in test [7] it was “no recognition”.

(Values after patent US20260273054A1 (published 2026).)
